Laboratory results: US20090148461A1 (Kyowa Kirin, published 2009)

Biological target: T1, full length human FGF23 protein (amino acid 25 to amino acid 251 of SEQ ID NO: 4) (human, UniProt Q9GZV9 25-251)
T1 construct: also called full length FGF23; human full length FGF23 protein
T1 sequence: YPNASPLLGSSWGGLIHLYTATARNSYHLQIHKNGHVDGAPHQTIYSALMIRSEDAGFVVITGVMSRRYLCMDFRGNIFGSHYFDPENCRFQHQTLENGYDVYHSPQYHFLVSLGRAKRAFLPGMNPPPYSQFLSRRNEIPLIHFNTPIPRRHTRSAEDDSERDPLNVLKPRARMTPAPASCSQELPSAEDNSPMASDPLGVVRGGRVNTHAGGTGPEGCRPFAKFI
Experiment: ELISA screening of hybridoma supernatants

binding result: binds
B1: C10 antibody (anti-FGF23 human monoclonal antibody produced by hybridoma C10, FERM BP-10772) (antibody, human IgG1, V domains shown)
VH: QVQLVQSGAEVKKPGASVKVSCKASGYTFTNHYMHWVRQAPGQGLEWMGIINPISGSTSNAQKFQGRVTMTRDTSTSTVYMELSSLRSEDTAVYYCARDIVDAFDFWGQGTMVTVSS
VL: AIQLTQSPSSLSASVGDRVTITCRASQGISSALVWYQQKPGKAPKLLIYDASSLESGVPSRFSGSGSGTDFTLTISSLQPEDFATYYCQQFNDYFTFGPGTKVDIK
notes: also called recombinant C10 antibody
